What was measured:
recombinant human IL-5 [1] = target: T1, recombinant human IL-5 (human, UniProt P05113 20-134); assay: cell-based or functional assay
T1 sequence (looked up): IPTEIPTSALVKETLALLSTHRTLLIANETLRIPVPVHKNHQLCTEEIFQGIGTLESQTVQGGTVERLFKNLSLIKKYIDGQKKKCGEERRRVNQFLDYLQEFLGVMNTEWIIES

murine IL-5 = target: T2, murine IL-5 (murine, UniProt P04401 21-133); assay: cell-based or functional assay
T2 sequence (looked up): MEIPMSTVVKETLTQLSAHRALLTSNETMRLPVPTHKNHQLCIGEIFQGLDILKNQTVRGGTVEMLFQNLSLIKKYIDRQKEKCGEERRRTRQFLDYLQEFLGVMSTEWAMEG

recombinant human IL-5 [2] = target: T1, recombinant human IL-5; assay: KinExA 3000 kinetic exclusion assay, Dual Curve (Unknown Antigen) method
Description: (§1) The KinExA uses the principle of the Kinetic Exclusion Assay method based on measuring the concentration of uncomplexed antibody in a mixture of antibody, antigen and antibody-antigen complex. The concentration of free antibody is measured by exposing the mixture to a solid-phase immobilized antigen for a very brief period of time. In practice, this is accomplished by flowing the solution phase antigen-antibody mixture past antigen coated particles trapped in a flow cell. Data, generated by the instrument are analyzed using custom software. Equilibrium constants are calculated using a mathematical theory based on the following assumptions:
(§2) All experimental procedures were performed according to the KinExA 3000™ Manual. All runs were done in duplicate.
(§3) The antibody molecular weight used for calculation was 150 Kda.

recombinant human IL-5 [3] = target: T1, recombinant human IL-5; assay: KinExA 3000 kinetic exclusion assay, Dual Curve analysis (Standard mode), 0.1 and 0.01 nM antibody
Description: as §1, §2, §3

IC50, TF-1 anti-proliferation assay (recombinant human IL-5 [1]): 250 pM | IC50, TF-1 anti-proliferation assay (murine IL-5): 380 pM | Kd (recombinant human IL-5 [2]): 0.0195 nM | Kd (recombinant human IL-5 [3]): 0.015 nM
B1: human monoclonal antibody 20.13.3 (antibody, human IgG4, kappa, V domains shown)
VH: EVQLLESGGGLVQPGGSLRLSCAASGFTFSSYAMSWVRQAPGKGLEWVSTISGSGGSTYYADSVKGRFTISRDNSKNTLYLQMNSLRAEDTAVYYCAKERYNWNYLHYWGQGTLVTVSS
VL: DIQMTQSPSSLSASVGDRVTITCQASQDIINYLNWYQQKPGKAPKLLIYSASNLETRVPSRFSGSGSGTDFTFTISSLQPEDIATYYCQQYDNHPLTFGGGTKVEIRR

From patent publication US20030194404A1 (SCHERING, published 2003)
